Values joined by “and” are separate entries in the source; they are usually repeats but may differ in a detail not shown here. Identical values can stand only once.

For data set [1], the system named is UT5600 cells (NTR−) lysogens. The data set is described as follows: Survival curve (colony count) IC50 of CB1954 in NTR-expressing lysogens. The format is cell-based, E. coli. The following applies: concentration of CB1954 giving 50% reduction in colony number after 36h growth; lysogen expressing the named NTR. As for the experimental part:
To quantify the improvement in NTR activity in the clones in a less subjective way, a few clones were selected for further study by determining their survival curves. The lysogens were grown overnight in LB +kanamycin and diluted to approximately 1 cell per μl based on the OD. In duplicate, 100 μl diluted cells were plated into Tris-buffered LB plates containing kanamycin, IPTG and 0-400 μM CB1954. After 36h growth the number of colonies on each plate were counted and expressed as a percentage of the number present on the plates with no CB1954. Survival curves showing % survival versus concentration of CB 1954 were plotted (see examples in FIG. 7) and the IC50 determined as the concentration of CB 1954 which kills gives a 50% reduction in colony number (Table 3 and FIG. 8). A few clones containing mutations resulting in an enhanced sensitivity to CB 1954 were selected for further study.

In data set [2] the test system is UT5600 cells (NTR−) lysogens. Briefly: Replica-plate screening of mutant NTR-expressing lysogens on increasing CB1954 (growth score). The format is cell-based, E. coli. The following applies: for Score: growth of lysogens on agar with kanamycin, IPTG and 0-400 μM CB1954, wild type = 4, higher = more sensitive. The arrangement: key to Score: 0: Good growth on all concentrations of CB 1954 = vector; Good growth on 100 and 200, faint on 300, ring of growth on 400 μM; Good growth on 100 and 200, ring growth on 300, none or very faint on 400 μM; Good growth on 100, faint to good on 200, none or very faint on 300 and 400 μM; 4: Good growth on 100 μM, none to ring growth on 200 μM = wild type; Good growth on 50 μM, ring on 100 μM, none on 200, 300 or 400 μM; 6: Faint growth on 50 μM, ring on 100 μM; 7: Good growth on 50 μM, none on 100 μM; 8: Ring growth on 50 μM, none on 100 μM; 9: None or very faint growth on 50 μM, none on 100 μM; 10: None or ring growth on 35 μM. As for the experimental part:
The ligation mix was packaged (Stratagene) into lambda bacteriophage particles that were used to infect UT5600 cells (NTR ^−). As a control wild type NTR was also cloned into this vector (JG16C2). Kanamycin resistant lysogens were selected on agar plates ([…] kanamycin) then individually grown overnight in a well of a 96-well plate in LB+Kanamycin. The clones were replica plated on to a series of plates containing Tris-buffered (50 mM, pH 7.5) LB agar with kanamycin, IPTG (0.1 mM) and CB1954 at a concentration of 0, 25, 35, 50, 100, 200, 300 or 400 μM (see FIG. 3). […]

B1: F124M (protein)
chain: MDIISVALKRHSTKAFDASKKLTPEQAEQIKTLLQYSPSSTNSQPWHFIVASTEEGKARVAKSAAGNYVFNERKMLDASHVVVFCAKTAMDDVWLKLVVDQEDADGRFATPEAKAANDKGRKFMADMHRKDLHDDAEWMAKQVYLNVGNFLLGVAALGLDAVPIEGFDAAILDAEFGLKEKGYTSLVVVPVGHHSVEDFNATLPKSRLPQNITLTEV
For B1, in data set [1], the midpoint of inhibition, the IC50, lay at 33 µM. Moreover, in data set [2], the “nitroreductase activity with CB1954 compared with wild-type” value (“nitroreductase activity with CB1954” for short) was “substantially greater activity with CB 1954 than the wild-type” and the Score is 9.

B2: F124S (protein)
chain: MDIISVALKRHSTKAFDASKKLTPEQAEQIKTLLQYSPSSTNSQPWHFIVASTEEGKARVAKSAAGNYVFNERKMLDASHVVVFCAKTAMDDVWLKLVVDQEDADGRFATPEAKAANDKGRKFSADMHRKDLHDDAEWMAKQVYLNVGNFLLGVAALGLDAVPIEGFDAAILDAEFGLKEKGYTSLVVVPVGHHSVEDFNATLPKSRLPQNITLTEV
Take B2: the IC50 (in general, the midpoint of a concentration-inhibition curve) in data set [1] came out at 41 µM. Further, in data set [2], the “nitroreductase activity with CB1954” value was “substantially greater activity with CB 1954 than the wild-type” and the Score is 7-9.

B3: F124W (protein)
chain: MDIISVALKRHSTKAFDASKKLTPEQAEQIKTLLQYSPSSTNSQPWHFIVASTEEGKARVAKSAAGNYVFNERKMLDASHVVVFCAKTAMDDVWLKLVVDQEDADGRFATPEAKAANDKGRKFWADMHRKDLHDDAEWMAKQVYLNVGNFLLGVAALGLDAVPIEGFDAAILDAEFGLKEKGYTSLVVVPVGHHSVEDFNATLPKSRLPQNITLTEV
Take B3: the midpoint of inhibition in data set [1], the IC50, lay at 56 µM. Also, in data set [2], the “nitroreductase activity with CB1954” value is “substantially greater activity with CB 1954 than the wild-type” and the Score is 5-7.

B4: F124Q (protein)
chain: MDIISVALKRHSTKAFDASKKLTPEQAEQIKTLLQYSPSSTNSQPWHFIVASTEEGKARVAKSAAGNYVFNERKMLDASHVVVFCAKTAMDDVWLKLVVDQEDADGRFATPEAKAANDKGRKFQADMHRKDLHDDAEWMAKQVYLNVGNFLLGVAALGLDAVPIEGFDAAILDAEFGLKEKGYTSLVVVPVGHHSVEDFNATLPKSRLPQNITLTEV
Molecule B4 had an IC50 in data set [1] of 39 µM. In addition, in data set [2], the “nitroreductase activity with CB1954” value is “substantially greater activity with CB 1954 than the wild-type” and the Score turned out to be 8.

B5: F124C (protein)
chain: MDIISVALKRHSTKAFDASKKLTPEQAEQIKTLLQYSPSSTNSQPWHFIVASTEEGKARVAKSAAGNYVFNERKMLDASHVVVFCAKTAMDDVWLKLVVDQEDADGRFATPEAKAANDKGRKFCADMHRKDLHDDAEWMAKQVYLNVGNFLLGVAALGLDAVPIEGFDAAILDAEFGLKEKGYTSLVVVPVGHHSVEDFNATLPKSRLPQNITLTEV
Molecule B5 registered an IC50 in data set [1] of 36 µM. Besides, in data set [2], the “nitroreductase activity with CB1954” value was “substantially greater activity with CB 1954 than the wild-type” and the Score is reported as 7-9.

B6: Y68N (protein)
chain: MDIISVALKRHSTKAFDASKKLTPEQAEQIKTLLQYSPSSTNSQPWHFIVASTEEGKARVAKSAAGNNVFNERKMLDASHVVVFCAKTAMDDVWLKLVVDQEDADGRFATPEAKAANDKGRKFFADMHRKDLHDDAEWMAKQVYLNVGNFLLGVAALGLDAVPIEGFDAAILDAEFGLKEKGYTSLVVVPVGHHSVEDFNATLPKSRLPQNITLTEV
In data set [1], B6 returned an IC50 of 79 µM. Moreover, the Score in data set [2] is listed as 5-7.

B7: Y68C (protein)
chain: MDIISVALKRHSTKAFDASKKLTPEQAEQIKTLLQYSPSSTNSQPWHFIVASTEEGKARVAKSAAGNCVFNERKMLDASHVVVFCAKTAMDDVWLKLVVDQEDADGRFATPEAKAANDKGRKFFADMHRKDLHDDAEWMAKQVYLNVGNFLLGVAALGLDAVPIEGFDAAILDAEFGLKEKGYTSLVVVPVGHHSVEDFNATLPKSRLPQNITLTEV
The molecule B7 had a 50% inhibitory concentration (IC50) in data set [1] of 105 µM. The molecule also displayed a Score in data set [2] of 5.

B8: F124T (protein)
chain: MDIISVALKRHSTKAFDASKKLTPEQAEQIKTLLQYSPSSTNSQPWHFIVASTEEGKARVAKSAAGNYVFNERKMLDASHVVVFCAKTAMDDVWLKLVVDQEDADGRFATPEAKAANDKGRKFTADMHRKDLHDDAEWMAKQVYLNVGNFLLGVAALGLDAVPIEGFDAAILDAEFGLKEKGYTSLVVVPVGHHSVEDFNATLPKSRLPQNITLTEV
Take B8: the IC50 in data set [1] was 56 µM and 87 µM. For the same molecule, in data set [2], the “nitroreductase activity with CB1954” value is given as “substantially greater activity with CB 1954 than the wild-type”; the Score is 7-9 and 7-8.

B9: F124G (protein)
chain: MDIISVALKRHSTKAFDASKKLTPEQAEQIKTLLQYSPSSTNSQPWHFIVASTEEGKARVAKSAAGNYVFNERKMLDASHVVVFCAKTAMDDVWLKLVVDQEDADGRFATPEAKAANDKGRKFGADMHRKDLHDDAEWMAKQVYLNVGNFLLGVAALGLDAVPIEGFDAAILDAEFGLKEKGYTSLVVVPVGHHSVEDFNATLPKSRLPQNITLTEV
For B9, the midpoint of inhibition in data set [1], the IC50, lay at 49 µM. Besides, in data set [2], the “nitroreductase activity with CB1954” value was “substantially greater activity with CB 1954 than the wild-type” and the Score stood at 7.

B10: F124V (protein)
chain: MDIISVALKRHSTKAFDASKKLTPEQAEQIKTLLQYSPSSTNSQPWHFIVASTEEGKARVAKSAAGNYVFNERKMLDASHVVVFCAKTAMDDVWLKLVVDQEDADGRFATPEAKAANDKGRKFVADMHRKDLHDDAEWMAKQVYLNVGNFLLGVAALGLDAVPIEGFDAAILDAEFGLKEKGYTSLVVVPVGHHSVEDFNATLPKSRLPQNITLTEV
As for B10, the IC50 in data set [1] was 37 µM and 53 µM. In data set [2], the “nitroreductase activity with CB1954” value is “substantially greater activity with CB 1954 than the wild-type” and the Score was 7-9.

B11: Y68A (protein)
chain: MDIISVALKRHSTKAFDASKKLTPEQAEQIKTLLQYSPSSTNSQPWHFIVASTEEGKARVAKSAAGNAVFNERKMLDASHVVVFCAKTAMDDVWLKLVVDQEDADGRFATPEAKAANDKGRKFFADMHRKDLHDDAEWMAKQVYLNVGNFLLGVAALGLDAVPIEGFDAAILDAEFGLKEKGYTSLVVVPVGHHSVEDFNATLPKSRLPQNITLTEV
Molecule B11 registered an IC50 in data set [1] of 81 µM. Moreover, the Score in data set [2] was 5-7.

B12: Y68S (protein)
chain: MDIISVALKRHSTKAFDASKKLTPEQAEQIKTLLQYSPSSTNSQPWHFIVASTEEGKARVAKSAAGNSVFNERKMLDASHVVVFCAKTAMDDVWLKLVVDQEDADGRFATPEAKAANDKGRKFFADMHRKDLHDDAEWMAKQVYLNVGNFLLGVAALGLDAVPIEGFDAAILDAEFGLKEKGYTSLVVVPVGHHSVEDFNATLPKSRLPQNITLTEV
The molecule B12 came in with an IC50 in data set [1] of 96 µM. Moreover, the Score in data set [2] is 5-7.

B13: F124Y (protein)
chain: MDIISVALKRHSTKAFDASKKLTPEQAEQIKTLLQYSPSSTNSQPWHFIVASTEEGKARVAKSAAGNYVFNERKMLDASHVVVFCAKTAMDDVWLKLVVDQEDADGRFATPEAKAANDKGRKFYADMHRKDLHDDAEWMAKQVYLNVGNFLLGVAALGLDAVPIEGFDAAILDAEFGLKEKGYTSLVVVPVGHHSVEDFNATLPKSRLPQNITLTEV
Regarding B13, in data set [1], half-maximal inhibition (IC50) was put at 66 µM. Besides, in data set [2], the “nitroreductase activity with CB1954” value is “substantially greater activity with CB 1954 than the wild-type” and the Score was 5-7.

B14: F124A (protein)
chain: MDIISVALKRHSTKAFDASKKLTPEQAEQIKTLLQYSPSSTNSQPWHFIVASTEEGKARVAKSAAGNYVFNERKMLDASHVVVFCAKTAMDDVWLKLVVDQEDADGRFATPEAKAANDKGRKFAADMHRKDLHDDAEWMAKQVYLNVGNFLLGVAALGLDAVPIEGFDAAILDAEFGLKEKGYTSLVVVPVGHHSVEDFNATLPKSRLPQNITLTEV
Take B14: the IC50 in data set [1] was 20 µM and 32 µM. In data set [2], the “nitroreductase activity with CB1954” value is “substantially greater activity with CB 1954 than the wild-type” and the Score is recorded as 7-9.

The values are drawn from patent US20050013808A1, “Nitroreductase enzymes” (priority 2001, published 2005).
